Data as given in patent publication US20240343820A1.
Residue numbers refer to the chain shown, from its start.

B1: 29F8 (antibody, V domains shown)
VH: QIQLVQSGPELKKPGETVKISCKASGYTFTTYGMSWVKQAPGKGLKWMGWINTYSGVPTYADDFKGRFAFSLETSASTAYLQINNLKNEDSATYFCARYYYGSNYDYWGQGTTLTVSS
VL: DIQMTQSPASLSASVGETVTITCRASENIYSYLAWYQQKQGKSPQLLVNNAKTLAEGVPSRFSGSGSGTQFSLKINSLQPEDFGSYYCQHHYGSPPTFGSGTKLEIK
B2: 29F1 (antibody, V domains shown)
VH: B1 VH with S91T, Y99F, N104S, Y105F
VL: B1 VL with N49Y, S94T, P96L, S100A, I106L
B3: 23E1 (antibody, V domains shown)
VH: EVQLQQSGPVLVKPGPSVKISCKASGFTFTDYYMHWVKQSHGKSLEWIGLVYPYNGGTSYNQKFKGKATLTVDTSSSTAYMELNSLTSEDSAVYYCARRGQRVWYFDVWGTGTTVTVSS
VL: DIQMTQSPSSLSASLGGKVTITCKASQDINKYIAWYQHKPGKGPRLLIHYTSTLQPGIPSRFSGSGSGRDYSFSISNLEPEDIATYYCLQYDNLYTFGGGTKLEIK
B4: 25B2 (antibody, V domains shown)
VH: B1 VH with S91T, Y99T, S103N, N104Y, Y105F
VL: B3 VL
B5: 23C11 (antibody, V domains shown)
VH: QVQLQQPGAELVRPGSSVKLSCKASGYTFTSYWMHWVKQRPIQGLEWIGNIDPSDSETHYNQKFKDKATLTVDKSSSTAYMQLSSLTSEDSAVYYCARAGRVFYYAMDYWGQGTSVTVSS
VL: DIQMTQTTSSLSASLGDRVTISCRASQDISNYLNWYQQKPDGTVKLLIYYTSRLHSGVPSRFSGSGSGTDYSLTISNLEQEDIATYFCQQGNTLYTFGGGTKLEIK
B6: 24C7 (antibody, V domains shown)
VH: QVQLQQSGPELVKPGASVKISCKASGYSFTSYYIHWVKQRPGQGLEWIGWIYPGSGNTKYNEKFKGKATLTADTSSSTAYMQLSSLTSEDSAVYYCARCVLLDYFDYWGQGTTLTVSS
VL: DIQMTQSPSSLSASLGERVSLTCRASQEISGYLSWLQQKPDGTIKRLIYAASTLDSGVPKRFSGSRSGSDYSLTISSLESEDFADYYCLQYASYPYTFGGGTKLEIK
B7: 25F10 (antibody, V domains shown)
VH: QVHLQQSGPELVKPGASVKISCKASGYSFTSYYIHWVKQRPGQGLEWIGWIYPRSGNTNYNEKFKDKATLAADTSSSAAYMQLSSLTSEDSAVYYCGRSDFYYGSDYWGQGTTLTVSS
VL: B6 VL with S34G, K60R, I75F, Y96W
B8: 22H5 (antibody, V domains shown)
VH: DVQLQESGPGMVKPSQSLSLTCTVTGYSITSGYDWHWIRHFPGNKLEWMGYISYSGSTNYNPSLKSRISITHDTSKNHFFLKLNSVTTEDTATYYCAREGYSNYFDSWGQGTTLTVSS
VL: SIVMTQTPKFLLVSAGDRVTITCKASQSVSNDVAWYQQKPGQSPKLLIFYASNRYTGVPDRFTGSGYGTDFTFTISTVQAEDLAVYFCQQDYSSPLAFGAGTKLELK
B9: 24C12 (antibody, V domains shown)
VH: QVQLQQSGAELMKPGASVKLSCKATGHTFTGYWIEWVKQRPGHGLEWIGEILPGSGSTNYNEKFKGKATFTADTSSNTAYMQLSSLTTEDSAIYYCAREGFAYWGQGTLVTVSA
VL: DIVMTQSHKFMSTSVGDRVSITCKASQDVGIAVAWYQQKPGQSPKLLIYWASTRHTGVPDRFTGSGSGTDFTLTISNVQSEDLADYFCQQYSSYPYTFGGGTKLEIK

biological target: anti-CD20 scFv-14; test: Octet (BLI) equilibrium binding, hybridoma supernatant; antigen format not stated

Kd [nM] | Binder
0.00131 | B1
0.0534 | B2
3.28 | B3
0.382 | B4
3.72 | B5
3.9 | B6
0.00408 | B7
0.633 | B8
0.00138 | B9
